Test results from US20210079110A1 (SCHOOL JURIDICAL PERSON THE KITASATO INSTITUTE, published 2021).

Key:
SEQ ID NO 69 = molecular target: T1, SEQ ID NO 69; experiment: peptide array of 15-mers, antibody diluted to 1/100 and 1/500
T1 construct: 15-residue KK-LC-1 peptide of the peptide array
T1 peptide: KLVELEHTLLSKGFR
Text: (§1) An antigen of the monoclonal antibody produced by the hybridoma cell line (accession number: NITE BP-02527) was identified by epitope mapping. Specifically, first, 73 types of 15-amino acid residue peptides in which a position on an N-terminus side was shifted by one amino acid residue each were synthesized based on the amino acid sequence of the KK-LC-1 protein to produce a peptide array. Amino acid sequences of the 73 types of peptides are shown in SEQ ID NOs: 13 to 85, respectively.
(§2) Subsequently, the peptide array was reacted with a monoclonal antibody to identify peptides having reactivity. The monoclonal antibody was diluted to 1/100 and 1/500 and the resultants were each reacted.

SEQ ID NO 70 = molecular target: T2, SEQ ID NO 70; experiment: as above
T2 construct: 15-residue KK-LC-1 peptide of the peptide array
T2 peptide: LVELEHTLLSKGFRG
Text: as §1, §2

[1] = molecular target: T3, VELEHTLLSKGFRGA (SEQ ID NO: 71); experiment: as above
T3 construct: 15-residue KK-LC-1 peptide of the peptide array
T3 peptide: VELEHTLLSKGFRGA
Text: as §1, §2

[2] = molecular target: T4, LSMVENKLVELEHTL (SEQ ID NO: 63); experiment: as above
T4 construct: 15-residue KK-LC-1 peptide of the peptide array
T4 peptide: LSMVENKLVELEHTL
Text: as §1, §2

SEQ ID NO 64 = molecular target: T5, SEQ ID NO 64; experiment: as above
T5 construct: 15-residue KK-LC-1 peptide of the peptide array
T5 peptide: SMVENKLVELEHTLL
Text: as §1, §2

SEQ ID NO 65 = molecular target: T6, SEQ ID NO 65; experiment: as above
T6 construct: 15-residue KK-LC-1 peptide of the peptide array
T6 peptide: MVENKLVELEHTLLS
Text: as §1, §2

SEQ ID NO 66 = molecular target: T7, SEQ ID NO 66; experiment: as above
T7 construct: 15-residue KK-LC-1 peptide of the peptide array
T7 peptide: VENKLVELEHTLLSK
Text: as §1, §2

SEQ ID NO 67 = molecular target: T8, SEQ ID NO 67; experiment: as above
T8 construct: 15-residue KK-LC-1 peptide of the peptide array
T8 peptide: ENKLVELEHTLLSKG
Text: as §1, §2

SEQ ID NO 68 = molecular target: T9, SEQ ID NO 68; experiment: as above
T9 construct: 15-residue KK-LC-1 peptide of the peptide array
T9 peptide: NKLVELEHTLLSKGF
Text: as §1, §2

[3] = molecular target: T10, Kitakyushu lung cancer antigen-1 (KK-LC-1) protein (human (tissue slices of patients), UniProt Q5H943 1-113); experiment: immunohistochemical staining of formaldehyde-fixed tissue slices
T10 construct: Endogenous protein in formaldehyde-fixed tissue slices (testis, seminoma, gastric tissue) stained by immunohistochemistry; also called NP_001017978.1
T10 sequence: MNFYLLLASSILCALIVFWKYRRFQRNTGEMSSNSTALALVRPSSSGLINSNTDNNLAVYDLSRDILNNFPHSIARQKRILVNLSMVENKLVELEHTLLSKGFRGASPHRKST
Text: Tissue slices of a normal region and a tumor region of a patient suffering from a testicular tumor and tissue slices of a normal region and a tumor region in a gastric tissue of a patient suffering from a gastric cancer, which are fixed with formaldehyde, were stained by using the produced monoclonal antibodies.

[4] = molecular target: T11, peptide having the amino acid sequence set forth in SEQ ID NO: 1; experiment: ELISA on immobilized peptide (Experimental Example 2) and absorption operation (Experimental Example 4)
T11 construct: Immunogen; immobilized on a 96-well plate in the ELISA and used for the absorption operation at 0.05 mg/mL; also called immunized peptide; peptide used for the immunization of the mouse
T11 peptide: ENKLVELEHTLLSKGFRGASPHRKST
Experimental: Reactivity of a monoclonal antibody was confirmed by an ELISA method using an immunized peptide as an antigen. Specifically, first, the peptide having the amino acid sequence set forth in SEQ ID NO: 1 was immobilized on a 96-well plate. Moreover, as a control, a 96-well plate in which only blocking was performed without immobilizing the peptide was used. A skim milk solution was used for the blocking.
Subsequently, the 96-well plate was blocked, a culture supernatant of each established hybridoma cell line was added thereto, and a reaction was performed. Moreover, for comparison, wells reacted with a normal mouse serum were also prepared. Next, the unreacted monoclonal antibody was washed off, the resultant was reacted with an anti-mouse secondary antibody, and a chromogenic substrate was added to develop color. Then, absorbance of each well was measured using a plate reader.
For the absorption operation of the monoclonal antibody, the peptide having the amino acid sequence set forth in SEQ ID NO: 1 was used at a final concentration of 0.05 mg/mL. Moreover, the absorption operation was performed overnight at 4° C. [0090] (a) to (d) of FIG. 3 are photographs showing results of immunohistochemical staining. In each case, a magnification was 200 times. […]

Measured: binding result

B1: monoclonal antibody produced by the hybridoma cell line having an accession number of NITE BP-02527 (antibody, V domains shown)
VH: EVQLQQSGPELVKPGASVKMSCKTSGYTSTEYTMHWVKQSHGQSLEWIGVIYPNNGDTSYNQKFRGKATLTVDKSSNTAYMELRSLTSEDSAVYYCARLGWQGFANWGQGTLVTVSA
VL: DIVMTQAAPSVPVTPGESVSISCRSSKSLLHSNGNTFLYWFLQRPGQSPQLLIYRMSNLASGVPDRFSGSGSGTAFTLRISRVEAEDVGVYYCMQHLEYPLTFGAGTKLELK
notes: Mouse hybridoma antibody, used as culture supernatant; also called 34B3; 277 34B3 20170123
binds: SEQ ID NO 69 | SEQ ID NO 70 | [1] | [2] | SEQ ID NO 64 | SEQ ID NO 65 | SEQ ID NO 66 | SEQ ID NO 67 | SEQ ID NO 68 | [3] | [4]
